Test results from US20260258141A1 (BIOCYTOGEN PHARMACEUTICALS BEIJING, published 2026).

B1: Teprotumumab analog (antibody, V domains shown)
VH: QVELVESGGGVVQPGRSQRLSCAASGFTFSSYGMHWVRQAPGKGLEWVAIIWFDGSSTYYADSVRGRFTISRDNSKNTLYLQMNSLRAEDTAVYFCARELGRRYFDLWGRGTLVSVSS
VL: EIVLTQSPATLSLSPGERATLSCRASQSVSSYLAWYQQKPGQAPRLLIYDASKRATGIPARFSGSGSGTDFTLTISSLEPEDFAVYYCQQRSKWPPWTFGQGTKVESKR
notes: also called positive control

Assays:
[1] = molecular target: human IGF1R (insulin-like growth factor 1 receptor) on cells (human) (UniProt P08069); test: flow cytometry on CHO-S-hIGF1R cells, antibody 20 µg/mL
human IGF1R (insulin-like growth factor 1 receptor) on cells (human), sequence (P08069 31-1367 limits assumed): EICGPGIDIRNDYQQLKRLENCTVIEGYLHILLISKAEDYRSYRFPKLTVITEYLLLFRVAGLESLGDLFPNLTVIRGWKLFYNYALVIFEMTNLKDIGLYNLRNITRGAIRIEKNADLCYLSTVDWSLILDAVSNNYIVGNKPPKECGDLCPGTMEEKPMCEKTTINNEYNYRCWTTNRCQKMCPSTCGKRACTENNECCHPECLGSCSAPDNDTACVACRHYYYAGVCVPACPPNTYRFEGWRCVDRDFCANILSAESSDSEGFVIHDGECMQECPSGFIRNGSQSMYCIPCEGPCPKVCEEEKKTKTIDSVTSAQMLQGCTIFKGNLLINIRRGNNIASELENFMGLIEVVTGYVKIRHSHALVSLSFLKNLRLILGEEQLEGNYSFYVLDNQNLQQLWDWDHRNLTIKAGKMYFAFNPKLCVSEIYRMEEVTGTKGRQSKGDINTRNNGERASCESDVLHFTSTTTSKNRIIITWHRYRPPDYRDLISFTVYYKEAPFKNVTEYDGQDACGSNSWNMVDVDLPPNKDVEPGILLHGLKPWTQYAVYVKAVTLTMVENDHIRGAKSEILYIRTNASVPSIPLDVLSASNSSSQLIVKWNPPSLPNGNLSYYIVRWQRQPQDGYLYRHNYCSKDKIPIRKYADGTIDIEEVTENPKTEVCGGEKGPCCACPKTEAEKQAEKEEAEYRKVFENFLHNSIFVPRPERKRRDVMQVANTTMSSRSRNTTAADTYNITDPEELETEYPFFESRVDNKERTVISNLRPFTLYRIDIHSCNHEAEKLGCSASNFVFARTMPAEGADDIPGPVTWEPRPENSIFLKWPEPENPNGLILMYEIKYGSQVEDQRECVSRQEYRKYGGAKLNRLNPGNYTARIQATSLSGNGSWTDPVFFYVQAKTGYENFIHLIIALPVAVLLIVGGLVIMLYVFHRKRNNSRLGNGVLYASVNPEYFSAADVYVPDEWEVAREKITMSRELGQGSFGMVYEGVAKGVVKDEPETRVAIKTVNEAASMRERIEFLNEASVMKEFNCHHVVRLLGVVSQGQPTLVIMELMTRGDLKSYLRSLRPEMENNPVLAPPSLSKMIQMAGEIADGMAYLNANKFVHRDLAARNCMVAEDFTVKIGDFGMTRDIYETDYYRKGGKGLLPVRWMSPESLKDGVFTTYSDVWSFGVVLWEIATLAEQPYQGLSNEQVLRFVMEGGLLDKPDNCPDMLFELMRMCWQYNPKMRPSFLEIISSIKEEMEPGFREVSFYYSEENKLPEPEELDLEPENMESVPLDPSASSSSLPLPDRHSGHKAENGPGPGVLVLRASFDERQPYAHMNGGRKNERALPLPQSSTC

[2] = molecular target: cynomolgus monkey IGF1R on cells (cynomolgus monkey); test: flow cytometry on CHO-S-fasIGF1R cells, antibody 20 µg/mL
cynomolgus monkey IGF1R on cells (cynomolgus monkey), sequence (P08069 other isoform, or with tags, fused parts or gaps limits assumed): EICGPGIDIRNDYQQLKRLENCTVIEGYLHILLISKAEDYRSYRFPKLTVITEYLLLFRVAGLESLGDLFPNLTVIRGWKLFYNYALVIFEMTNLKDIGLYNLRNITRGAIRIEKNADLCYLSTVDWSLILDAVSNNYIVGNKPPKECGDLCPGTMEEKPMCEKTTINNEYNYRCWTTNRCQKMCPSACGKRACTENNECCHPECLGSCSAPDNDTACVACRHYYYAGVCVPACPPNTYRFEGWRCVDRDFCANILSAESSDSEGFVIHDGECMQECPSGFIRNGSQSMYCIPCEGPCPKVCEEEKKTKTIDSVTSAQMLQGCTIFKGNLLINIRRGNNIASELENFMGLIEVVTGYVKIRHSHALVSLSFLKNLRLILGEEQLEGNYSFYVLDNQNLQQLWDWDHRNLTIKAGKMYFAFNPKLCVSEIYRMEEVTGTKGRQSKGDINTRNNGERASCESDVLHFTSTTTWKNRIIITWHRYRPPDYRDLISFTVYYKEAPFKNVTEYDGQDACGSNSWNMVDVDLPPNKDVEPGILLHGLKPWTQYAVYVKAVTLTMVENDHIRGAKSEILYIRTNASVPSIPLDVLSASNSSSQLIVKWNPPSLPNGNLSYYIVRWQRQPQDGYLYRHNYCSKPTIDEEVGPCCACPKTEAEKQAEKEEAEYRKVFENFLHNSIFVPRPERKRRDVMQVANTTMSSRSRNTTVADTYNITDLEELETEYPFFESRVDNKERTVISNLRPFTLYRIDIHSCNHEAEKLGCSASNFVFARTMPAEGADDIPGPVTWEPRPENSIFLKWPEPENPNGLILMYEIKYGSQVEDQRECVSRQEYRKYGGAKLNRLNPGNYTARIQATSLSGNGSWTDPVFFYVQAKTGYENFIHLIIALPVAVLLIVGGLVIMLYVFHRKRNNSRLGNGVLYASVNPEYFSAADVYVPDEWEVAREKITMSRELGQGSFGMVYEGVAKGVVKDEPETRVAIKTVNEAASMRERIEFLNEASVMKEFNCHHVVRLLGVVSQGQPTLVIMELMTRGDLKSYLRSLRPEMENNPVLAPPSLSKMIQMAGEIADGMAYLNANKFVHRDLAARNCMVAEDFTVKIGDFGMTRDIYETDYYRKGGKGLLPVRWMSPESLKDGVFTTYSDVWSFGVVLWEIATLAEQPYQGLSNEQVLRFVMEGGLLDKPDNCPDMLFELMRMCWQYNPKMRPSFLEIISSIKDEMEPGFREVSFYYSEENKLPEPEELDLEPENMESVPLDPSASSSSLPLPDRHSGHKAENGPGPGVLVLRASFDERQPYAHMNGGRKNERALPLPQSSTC

[3] = molecular target: T1, human insulin receptor INSR on cells (human, UniProt P06213 28-1382); test: flow cytometry on CHO-S-hINSR cells, antibody 20 µg/mL
T1 construct: Expressed on CHO-S cells; also called hINSR; CHO-S-hINSR cells
T1 sequence (P06213 other isoform, or with tags, fused parts or gaps limits assumed): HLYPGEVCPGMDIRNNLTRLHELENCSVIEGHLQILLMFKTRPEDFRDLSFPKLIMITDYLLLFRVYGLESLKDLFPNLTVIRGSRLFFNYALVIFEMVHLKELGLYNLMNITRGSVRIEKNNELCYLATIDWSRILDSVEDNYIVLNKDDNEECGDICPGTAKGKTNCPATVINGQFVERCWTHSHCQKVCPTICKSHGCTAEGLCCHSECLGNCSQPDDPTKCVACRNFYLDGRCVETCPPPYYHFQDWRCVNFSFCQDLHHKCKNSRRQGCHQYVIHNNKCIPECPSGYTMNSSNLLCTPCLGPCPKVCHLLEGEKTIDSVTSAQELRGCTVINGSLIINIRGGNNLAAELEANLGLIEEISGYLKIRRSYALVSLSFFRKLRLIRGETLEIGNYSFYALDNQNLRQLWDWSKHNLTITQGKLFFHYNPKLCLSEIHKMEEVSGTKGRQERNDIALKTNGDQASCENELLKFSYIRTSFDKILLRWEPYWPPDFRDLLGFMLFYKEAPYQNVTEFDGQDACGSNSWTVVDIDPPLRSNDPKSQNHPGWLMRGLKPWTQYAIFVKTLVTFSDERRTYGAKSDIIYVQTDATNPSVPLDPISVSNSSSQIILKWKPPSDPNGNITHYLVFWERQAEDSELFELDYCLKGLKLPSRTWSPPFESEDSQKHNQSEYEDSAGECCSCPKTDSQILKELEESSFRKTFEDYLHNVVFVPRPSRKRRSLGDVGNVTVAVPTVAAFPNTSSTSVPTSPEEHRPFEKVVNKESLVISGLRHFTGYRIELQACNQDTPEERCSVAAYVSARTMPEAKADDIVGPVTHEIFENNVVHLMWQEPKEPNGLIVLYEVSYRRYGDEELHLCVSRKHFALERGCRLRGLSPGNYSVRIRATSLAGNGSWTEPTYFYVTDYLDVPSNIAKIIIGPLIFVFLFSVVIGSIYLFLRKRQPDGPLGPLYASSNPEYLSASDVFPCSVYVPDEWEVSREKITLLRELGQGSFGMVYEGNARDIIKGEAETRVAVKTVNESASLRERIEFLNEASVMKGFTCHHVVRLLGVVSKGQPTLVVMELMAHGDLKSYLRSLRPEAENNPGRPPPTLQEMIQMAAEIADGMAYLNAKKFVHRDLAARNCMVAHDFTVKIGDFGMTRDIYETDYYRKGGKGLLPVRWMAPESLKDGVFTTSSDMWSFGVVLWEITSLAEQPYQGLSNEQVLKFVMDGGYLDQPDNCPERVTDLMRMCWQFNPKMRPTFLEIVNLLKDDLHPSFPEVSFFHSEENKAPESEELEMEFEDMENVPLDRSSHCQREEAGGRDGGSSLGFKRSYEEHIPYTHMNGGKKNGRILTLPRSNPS
Procedure: INSR (insulin receptor) and IGF1R are both members of the superfamily of receptor tyrosine kinases (RTKs). The binding activity of anti-IGF1R antibodies to human IGF1R, human INSR and monkey IGF1R was verified by flow cytometry. Briefly, CHO-S-hIGF1R cells (expressing human IGF1R (SEQ ID NO: 45), CHO-S-fasIGF1R cells (expressing cynomolgus monkey IGF1R (SEQ ID NO: 46) and CHO-S-hINSR (expressing SEQ ID NO: 47) were plated in a 96-well plate at a density of 2×10⁵ cells/well respectively. Purified anti-IGF1R antibody with a concentration of 20 μg/mL was added to each well and was incubated at 4° C. for 30 minutes. Then, after one wash with PBS, the cells were incubated with the secondary antibody Alexa Fluor® 647 anti-human IgG Fcγ (Jackson ImmunoResearch Laboratories, Inc., Cat #: 109-606-170) at 4° C. for 15 minutes before flow cytometry analysis. Human IgG1 was used as ISO control.

Molecule	Percentage of positive cells [1] [%]	Percentage of positive cells [2] [%]	Percentage of positive cells [3] [%]
Human IgG1 ISO control (antibody)	0.7	0.3	0.4
B1	–	–	1.5
